Tested on: Abp1 PPIs
Assay: DHFR-PCA of Abp1 SH3-swapped baits (Fig. 2B-D, S2C, S2F)
Type: cell-based, Saccharomyces cerevisiae
Conditions: number of interactions of Abp1 carrying the named SH3; sheet FigS2A-B
In short: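 Interactions were scored by DHFR protein-fragment complementation. DHFR F[1,2]-tagged Abp1 strains, whose SH3 was swapped for yeast or human ortholog domains, were crossed on YPD at 30 °C for 48 h with a 1536-format array of 575 prey-DHFR F[3] strains and 40 negatives, giving four replicates per pair. PCA selection lasted 4 days after double diploid selection.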

B1: WT (protein, UniProt P15891 2-592, looked up)
Actin-binding protein: ALEPIDYTTHSREIDAEYLKIVRGSDPDTTWLIISPNAKKEYEPESTGSSFHDFLQLFDETKVQYGLARVSPPGSDVEKIIIIGWCPDSAPLKTRASFAANFAAVANNLFKGYHVQVTARDEDDLDENELLMKISNAAGARYSIQTSSKQQGKASTPPVKKSFTPSKSPAPVSKKEPVKTPSPAPAAKISSRVNDNNDDDDWNEPELKERDFDQAPLKPNQSSYKPIGKIDLQKVIAEEKAKEDPRLVQKPTAAGSKIDPSSDIANLKNESKLKRDSEFNSFLGTTKPPSMTESSLKNDDDKVIKGFRNEKSPAQLWAERKAKQNSGNAETKAEAPKPEVPEDEPEGEPDVKDLKSKFEGLAASEKEEEEMENKFAPPPKKSEPTIISPKPFSKPQEPVKAEEAEQPKTDYKKIGNPLPGMHIEADNEEEPEENDDDWDDDEDEAAQPPLPSRNVASGAPVQKEEPEQEEIAPSLPSRNSIPAPKQEEAPEQAPEEEIEEEAEEAAPQLPSRSSAAPPPPPRRATPEKKPKENPWATAEYDYDAAEDNELTFVENDKIINIEFVDDDWWLGELEKDGSKGLFPSNYVSLGN
  Interactions in Abp1: 80

— PMC7954794, “Protein context shapes the specificity of SH3 domain-mediated interactions in vivo” (Nature Communications, 2021)
